Measurements from US20250289861A1 (IMMUNOFORGE, published 2025).

B1: PF1802_M021 (GLP1-Fc-mut.IGF1) (Fc fusion)
chain: HGEGTFTSDVSSYLEEQAAKEFIAWLVKGGGGSAPAPGGGGSDKTHTCPPCPAPELLGGPSVFLFPPKPKDTLMISRTPEVTCVVVDVSHEDPEVKFNWYVDGVEVHNAKTKPREEQYASTYRVVSVLTVEHMDWLNGKEYKCKVSNKALPAPIEKTISKAKGQPREPQVYTLPPSREEMTKNQVSLTCLVKGFYPSDIAVEWESNGQPENNYKTTPPVLDSDGSFFLYSKLTVDKSRWQQGNVFSCSVLHEALHNHYTQKSLSLSPGKGGGGSGGGGSGGGGSGGGGSGAHSGPATLCGAELVDALQFVCGDRGFYFNKPTGYGSSSRRAPQTGIVDECCARSCDLRRLEMYCAPLKPTKST
notes: M008 with a half-life-increasing Fc: N297A, L309E, Q311M, M428L
B2: PF1802_M020 (GLP1-Fc-mut.IGF1) (Fc fusion)
chain: HGEGTFTSDVSSYLEEQAAKEFIAWLVKGGGGSAPAPGGGGSDKTHTCPPCPAPELLGGPSVFLFPPKPKDTLMISRTPEVTCVVVDVSHEDPEVKFNWYVDGVEVHNAKTKPREEQYASTYRVVSVLTVYHMDWLNGKEYKCKVSNKALPAPIEKTISKAKGQPREPQVYTLPPSREEMTKNQVSLTCLVKGFYPSDIAVEWESNGQPENNYKTTPPVLDSDGSFFLYSKLTVDKSRWQQGNVFSCSVLHEALHNHYTQKSLSLSPGKGGGGSGGGGSGGGGSGGGGSGAHSGPATLCGAELVDALQFVCGDRGFYFNKPTGYGSSSRRAPQTGIVDECCARSCDLRRLEMYCAPLKPTKST
notes: M008 with a half-life-increasing Fc: N297A, L309Y, Q311M, M428L
B3: PF1802_M022 (GLP1-Fc-mut.IGF1) (Fc fusion)
chain: HGEGTFTSDVSSYLEEQAAKEFIAWLVKGGGGSAPAPGGGGSDKTHTCPPCPAPELLGGPSVFLFPPKPKDTLMISRTPEVTCVVVDVSHEDPEVKFNWYVDGVEVHNAKTKPREEQYASTYRVVSVLTVEHWDWLNGKEYKCKVSNKALPAPIEKTISKAKGQPREPQVYTLPPSREEMTKNQVSLTCLVKGFYPSDIAVEWESNGQPENNYKTTPPVLDSDGSFFLYSKLTVDKSRWQQGNVFSCSVLHEALHNHYTQKSLSLSPGKGGGGSGGGGSGGGGSGGGGSGAHSGPATLCGAELVDALQFVCGDRGFYFNKPTGYGSSSRRAPQTGIVDECCARSCDLRRLEMYCAPLKPTKST
notes: M008 with a half-life-increasing Fc: N297A, L309E, Q311W, M428L

Biological target: T1, Human FcRn-GST protein (human, UniProt P55899 24-297; P61769 21-119, limits assumed)
T1 construct: not shown: GST tag
Assay: ELISA at pH 6.0: fusion protein coated on the plate, Human FcRn-GST titrated (x axis, ug/ml), anti-GST Ab-HRP, A450
Protocol: To investigate the binding affinity of the PF1802_M020, M021, and M022 substances, obtained by introducing three types of blood half-life-increasing Fc to the PF1802-M008 candidate substance, to human FcRn, ELISA was performed, and to investigate the difference in binding affinity depending on pH, two situations at pH 6.0 and pH 7.4 were prepared, respectively. Specifically, each of the PF1802_M020, M021, and M022 substances was coated at 4 μg/mL on a 96 well immunoplate, and reacted with PBS (pH 6.0 and 7.4) containing 4% skim milk at room temperature for 1 hour to block non-specific binding. Thereafter, the Human FcRn-GST protein was diluted 4-fold from a maximum concentration of 5 μg/mL to 0.0003 μg/mL using PBS (pH 6.0, 7.4) containing 1% skim milk, and then dispensed into each well, followed by incubation at room temperature for 1 hour.

T1 sequence (P55899 24-297 limits assumed, chain 1 of 2): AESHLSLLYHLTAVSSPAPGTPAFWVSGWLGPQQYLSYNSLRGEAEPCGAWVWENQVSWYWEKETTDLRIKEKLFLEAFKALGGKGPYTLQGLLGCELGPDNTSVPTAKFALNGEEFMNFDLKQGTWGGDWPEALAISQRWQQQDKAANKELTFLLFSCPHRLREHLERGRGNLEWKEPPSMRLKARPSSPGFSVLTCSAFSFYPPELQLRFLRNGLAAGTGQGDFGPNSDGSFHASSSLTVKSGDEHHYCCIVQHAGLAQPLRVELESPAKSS
T1 sequence (P61769 21-119 limits assumed, chain 2 of 2): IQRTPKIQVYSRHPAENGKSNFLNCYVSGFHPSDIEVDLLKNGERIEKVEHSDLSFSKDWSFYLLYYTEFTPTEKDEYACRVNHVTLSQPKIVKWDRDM

Question: For B1, which “EC50 (read off the curve)” value is on record?
Answer: The value was about 0.03 µg/mL.

Question: With B2 as the binder, how does the “EC50 (read off the curve)” value read?
Answer: Its value is about 0.04 µg/mL.

Question: For B3, which “EC50 (read off the curve)” value is on record?
Answer: Its value is about 0.03 µg/mL.
